These results are taken from PMC7338556, “A Truncated Form of HpARI Stabilizes IL-33, Amplifying Responses to the Cytokine” (Frontiers in Immunology, 2020).

The chains are these.
B1: recombinant murine IL-33 (ligand)
chain: SIQGTSLLTQSPASLSTYNDQSVSFVLENGCYVINVDDSGKDQEQDQVLLRYYESPCPASQSGDGVDGKKLMVNMSPIKDTDIWLHANDKDYSVELQRGDVSPPEQAFFVLHKKSSDFVSFECKNLPGTYIGVKDNQLALVEEKDESCNNIMFKLSKI
modifications: Reduced (active) form with free cysteines. Limits are not given; the usual commercial (BioLegend) mature mouse IL-33, Ser109-Ile266, is assumed, matching the candidate chain 109-266
B2: HpARI_CCP2/3 (HpARI truncation lacking CCP1) (domain or fragment)
chain: TYDPTPNTPTTVGKDGIWNGVDYRNGSTVKPYCDTGPVINGSSKAVCVSGKWVPTLGVCPKMCSIGSLKENGKFVDVTATTKGDELNPPPREQTLIPIVRKVDKDKVQHGVKVVALCKAEDSTTAAEGVQEFECDNGKWKPEPVPCP
B3: HpARI_CCP1/2 (HpARI truncation lacking CCP3) (domain or fragment)
chain: AGQRCRFTDVERDKGYTGMLLKGRLRKTAGNGRTVELICGRGNHNYTCESGVLKESSPRQARCGCKGILEMLFDMPKEERPSPMYDSVTYDPTPNTPTTVGKDGIWNGVDYRNGSTVKPYCDTGPVINGSSKAVCVSGKWVPTLGVCPK

The target of test [1] is T1, H. polygyrus Alarmin Release Inhibitor (HpARI), full-length (Heligmosomoides polygyrus).
T1 construct: It was cloned into the secretion vector pSecTAG2A, so the native signal peptide may be missing and a vector leader used (surmise); also called full-length HpARI; source: Expi293F cells, transfected (pSecTAG2A), purified from supernatant (HisTrap excel, HiTRAP chelating HP Ni column); not shown: His6, C-terminal, kept
The test can be described thus: SPR; HpARI, HpARI_CCP1/2 or HpARI_CCP2/3 captured via the hexa-His tag and covalently stabilised on an NTA chip (400 RU); mIL-33 2.47-200 nM injected, single-cycle kinetics, 25 °C; 10 mM NaH2PO4 pH 7.5, 150 mM NaCl, 50 μM EDTA, 0.05% P20; global fit of a 1:1 model with mass transport. As to conditions: both partners purified.

In the test “recombinant murine IL-33” the target is B1. The test is described as above. As to conditions: both partners purified.

In test [1], B1 had a Kd of 1.1 nM and a koff of 0.00015 s⁻¹.

As for B2, the Kd in the test with recombinant murine IL-33 was found to be 1.4 nM.

On to B3, for which, in the test with recombinant murine IL-33, the Kd stood at 9.8 nM and the koff is 0.003 s⁻¹.
